Measurements: article PMC4915018, “Brain phosphorylation of MeCP2 at serine 164 is developmentally regulated and globally alters its chromatin association”

Target: MeCP2(74-172) WT (human, UniProt P51608 74-172)
Assay: EMSA; subtly but consistently higher affinity for mCG; 10 mM Tris-HCl (pH not given), 50 mM KCl, 0.5 mM MgCl2, 0.1 mM EDTA, 5% glycerol, 0.1 mg/ml BSA, RT 30 min; 0-500 ng protein, 200 ng probe; 6% acrylamide, 1X TAE, ethidium bromide
Details: protein: recombinant; blunt

Sequence of MeCP2(74-172) WT (P51608 74-172): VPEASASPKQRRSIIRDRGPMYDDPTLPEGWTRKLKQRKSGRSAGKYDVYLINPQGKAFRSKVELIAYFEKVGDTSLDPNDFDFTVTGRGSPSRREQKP

B1: CpG methylated probe (dsDNA)
DNA 1: CTAAAGGAAAAGTGACGCACTGTTTTACACCTTGGTTTT
DNA 2: AAAACCAAGGTGTAAAACAGTGCGTCACTTTTCCTTTAG
modifications: symmetric methyl-C at the only CpG (C16 of S1, C23 of S2; position inferred, bold marks lost)
  binding result: binds
